Source: the supplement of paper PMC10724198
± gives the standard deviation of the averaged measurements.

Tested on: Saccharomyces cerevisiae
Experiment: protein stability index of tFT-peptide fusion (C-terminal peptide) (PSI (0-1 scale)); higher = more stable (slower turnover)
Conditions: temperature: 30 C
Method: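 MPS profiling in S. cerevisiae of the yeast C-terminome library: the last 12 aa of each annotated ORF are fused to the C-terminus of a sfGFP-mCherry timer, after a GGGS linker. Cells are FACS-sorted into 8 mCherry/sfGFP bins and deep-sequenced. PSI runs from 0 (unstable) to 1 (stable); wild type and das1Δ backgrounds, two technical replicates each.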

[1] = genetic background: das1 deletion

| Sequence | protein stability index [1] | protein stability index (genetic background: wild type) |
| --- | --- | --- |
| TAEPNRNVNQMP [YDL218W C-terminal 12 aa] | 0.678 ± 0.017 | 0.662 ± 0.013 |
| TQLVQKALERFK [RIC1 C-terminal 12 aa] | 0.734 ± 0.025 | 0.676 ± 0.084 |
| RTKGQKWFDGLM [NAT2 C-terminal 12 aa] | 0.6819 ± 0.0031 | 0.698 ± 0.016 |
| VISLAAQSKYVQ [MCO6 C-terminal 12 aa] | 0.693 ± 0.019 | 0.697 ± 0.034 |
| PQMDDHTVISEI [MLO127 C-terminal 12 aa] | 0.745 ± 0.029 | 0.6854 ± 0.006 |
| PQENHDNKEEQS [HEK2 C-terminal 12 aa] | 0.676 ± 0.019 | 0.688 ± 0.033 |
| EEKKKQEEGHSN [MNN4 C-terminal 12 aa] | 0.699 ± 0.0072 | 0.663 ± 0.03 |
| STTIRAINALYS [HSP32 C-terminal 12 aa] | 0.675 ± 0.017 | 0.65 ± 0.037 |
| LCILRIVGVANF [YER039C-A C-terminal 12 aa] | 0.426 ± 0.0017 | 0.4474 ± 0.0034 |
| FHLNAKTRESEI [YDL162C C-terminal 12 aa] | 0.702 ± 0.012 | 0.67952 ± 0.00014 |
| AKNARPSKKRKF [DBP10 C-terminal 12 aa] | 0.752 ± 0.025 | 0.6782 ± 0.0047 |
| SKDLGNVLTNLL [ESF2 C-terminal 12 aa] | 0.6902 ± 0.005 | 0.679 ± 0.035 |
| GIVYDFHKSDMY [LSM1 C-terminal 12 aa] | 0.683 ± 0.036 | 0.696 ± 0.043 |
| YGLLKFHSVFES [YMR209C C-terminal 12 aa] | 0.707 ± 0.0069 | 0.668 ± 0.054 |
| IPELHNLKPTCV [YBR238C C-terminal 12 aa] | 0.67 ± 0.012 | 0.687 ± 0.016 |
| YGNWSKTVADLN [BAT1 C-terminal 12 aa] | 0.692 ± 0.022 | 0.687 ± 0.022 |
| CTSLLKGERKKE [RRT8 C-terminal 12 aa] | 0.6656 ± 0.00077 | 0.685 ± 0.012 |
| DSQDMERMDSDS [YLR076C C-terminal 12 aa] | 0.691 ± 0.035 | 0.745 ± 0.11 |
| FDELVRKYDTSN [SEC28 C-terminal 12 aa] | 0.718 ± 0.017 | 0.665 ± 0.0076 |
| PEDCKDDKYFVN [LCB2 C-terminal 12 aa] | 0.6832 ± 0.0068 | 0.685 ± 0.04 |
| VFWKLKSRKLRI [MCH1 C-terminal 12 aa] | 0.692 ± 0.0085 | 0.418 ± 0.033 |

| Sequence | protein stability index [1] | protein stability index (genetic background: wild type) |
| --- | --- | --- |
| MTDFSSSIIKGK [YCR090C C-terminal 12 aa] | 0.713 ± 0.031 | 0.677 ± 0.048 |
| IGWSVFAEWLCV [CYK3 C-terminal 12 aa] | 0.504 ± 0.02 | 0.5137 ± 0.003 |
| DMGKNLLQNKKF [ERG2 C-terminal 12 aa] | 0.695 ± 0.039 | 0.695 ± 0.012 |
| NAILNGGSVSGL [YAR066W C-terminal 12 aa] | 0.677 ± 0.0079 | 0.668 ± 0.02 |
| ITERLFNAALDD [YBR232C C-terminal 12 aa] | 0.7089 ± 0.0038 | 0.708 ± 0.018 |
| LSIGQKLTTPLC [SYC1 C-terminal 12 aa] | 0.651 ± 0.015 | 0.656 ± 0.029 |
| MDDEFVSGRFEI [SCH9 C-terminal 12 aa] | 0.717 ± 0.025 | 0.7026 ± 0.0042 |
| SKNTREEKPTEL [MMM1 C-terminal 12 aa] | 0.698 ± 0.011 | 0.688 ± 0.018 |
| ESTTDAESKGSK [MRPL11 C-terminal 12 aa] | 0.676 ± 0.015 | 0.706 ± 0.11 |
| LLSLLRVLKQPH [CSS1 C-terminal 12 aa] | 0.675 ± 0.023 | 0.66 ± 0.011 |
| DDAKDSNNSSLR [WSC2 C-terminal 12 aa] | 0.682 ± 0.011 | 0.724 ± 0.0081 |
| CKQWEISNMLKK [CSI1 C-terminal 12 aa] | 0.738 ± 0.023 | 0.664 ± 0.04 |
| WRSIGSGPIMEF [BUG1 C-terminal 12 aa] | 0.706 ± 0.024 | 0.719 ± 0.031 |
| FTHFTSSKDRKD [SIT1 C-terminal 12 aa] | 0.711 ± 0.026 | 0.699 ± 0.021 |
| TDNTVYQKFLKY [ILV1 C-terminal 12 aa] | 0.674 ± 0.014 | 0.692 ± 0.041 |
| CSGAAGKIYVCD [CDC40 C-terminal 12 aa] | 0.6678 ± 0.005 | 0.723 ± 0.01 |
| AFSDLSTLENAS [ATG42 C-terminal 12 aa] | 0.7267 ± 0.001 | 0.723 ± 0.03 |
| GKTAADNIAKLY [OSM1 C-terminal 12 aa] | 0.6764 ± 0.004 | 0.619 ± 0.02 |
| IEELLAGIRMSI [BIT61 C-terminal 12 aa] | 0.719 ± 0.028 | 0.706 ± 0.037 |
| GLCLCCTLDMLF [YDL012C C-terminal 12 aa] | 0.676 ± 0.014 | 0.6621 ± 0.0026 |
| ETRASCLLSRAF [YJL052C-A C-terminal 12 aa] | 0.6962 ± 0.0034 | 0.698 ± 0.015 |

| Sequence | protein stability index [1] | protein stability index (genetic background: wild type) |
| --- | --- | --- |
| AKDYLLDLAGQA [YBR085C-A C-terminal 12 aa] | 0.71316 ± 0.00065 | 0.659 ± 0.012 |
| KLYKNSDFNSEK [RRG7 C-terminal 12 aa] | 0.7 ± 0.0014 | 0.694 ± 0.017 |
| EWFYEKFLGNIF [DIP5 C-terminal 12 aa] | 0.747 ± 0.013 | 0.702 ± 0.014 |
| SWISKEKRVSEE [HXT2 C-terminal 12 aa] | 0.731 ± 0.032 | 0.809 ± 0.04 |
| LAYPACLACQAS [VPS69 C-terminal 12 aa] | 0.6 ± 0.02 | 0.59 ± 0.011 |
| LMGAALAAVMLL [FIT3 C-terminal 12 aa] | 0.6841 ± 0.0054 | 0.6409 ± 0.0026 |
| PILCTSEDFMGW [RGP1 C-terminal 12 aa] | 0.709 ± 0.0088 | 0.732 ± 0.049 |
| IDSLIENLRFQI [DBF4 C-terminal 12 aa] | 0.7414 ± 0.0037 | 0.678 ± 0.049 |
| GTKMEWFFDPLA [IPT1 C-terminal 12 aa] | 0.732 ± 0.025 | 0.701 ± 0.0081 |
| TSPPEGMEPKHW [SGT1 C-terminal 12 aa] | 0.696 ± 0.013 | 0.687 ± 0.0088 |
| NFVMTVFWKIPV [PER33 C-terminal 12 aa] | 0.5008 ± 0.0016 | 0.558 ± 0.075 |
| VHTELLIYCHDE [ASR1 C-terminal 12 aa] | 0.7068 ± 0.006 | 0.6802 ± 0.0017 |
| QEAGAFTFNEDF [RNR2 C-terminal 12 aa] | 0.726 ± 0.018 | 0.711 ± 0.0081 |
| DECFCLARHEND [TDP1 C-terminal 12 aa] | 0.7114 ± 0.0022 | 0.708 ± 0.023 |
| PYLEEAYSNLEE [PPX1 C-terminal 12 aa] | 0.685 ± 0.0024 | 0.722 ± 0.048 |
| GPSDDDEEDDKK [YGL242C C-terminal 12 aa] | 0.643 ± 0.043 | 0.675 ± 0.07 |
| ELKRKDALSKKI [COA2 C-terminal 12 aa] | 0.688 ± 0.048 | 0.75 ± 0.017 |
| YLPRSKWFGILV [ALG14 C-terminal 12 aa] | 0.359 ± 0.02 | 0.165 ± 0.0058 |
| NEDWPNESKPLV [GOR1 C-terminal 12 aa] | 0.711 ± 0.0072 | 0.663 ± 0.011 |
